Laboratory results: patent EP4755916A1 (Jiangsu Hengrui Pharmaceuticals Co., Ltd., dated 2026)
Changes are numbered by the printed parent chain. Names and notes keep the numbering of the source. Like-named read-outs stand apart in the source and are kept apart here. One block for each binder: values may come before it.

Assays:
[1] = target: T1, human BTN3A1 recombinant protein with his tag (h-BTN3A1-his) (human, UniProt O00481 30-254); assay: ELISA, plate coated with h-BTN3A1-his, antibody titrated
T1 construct: range 30-254; Bought from Kactus; also called human BTN3A1 antigen protein (Kactus Biosystems, BTN-HM1A1); not shown: his tag

[2] = target: T2, human BTN3A1 expressed on HEK293 cells (human, UniProt O00481 30-513); assay: flow cytometry, HEK293 cells overexpressing human BTN3A1
T2 construct: whole, on cells; also called BTN3A1-expressing HEK293 cells; human BTN3A1-overexpressing cells

[3] = target: T2, human BTN3A1 expressed on HEK293 cells; assay: flow cytometry, HEK293 cells (endogenous BTN3A knocked out) overexpressing human BTN3A1
[4] = target: T1, human BTN3A1 recombinant protein with …; assay: SPR Biacore 8K, antibody captured on Protein A chip, BTN3A1 as analyte, 1:1 Langmuir fit
[5] = target: T2, human BTN3A1 expressed on HEK293 cells; assay: flow cytometry, HEK293 cells (endogenous BTN3A knocked out) overexpressing human BTN3A1; remark: listed apart in the source
[6] = target: T3, human BTN3A2 overexpressed on HEK293 cells (human, UniProt P78410 30-334); assay: flow cytometry, HEK293 cells (endogenous BTN3A knocked out) overexpressing human BTN3A2
T3 construct: whole, on cells; HEK293 cells with endogenous BTN3A knocked out; also called human BTN3A2-overexpressing cells

[7] = target: T4, human BTN3A3 overexpressed on HEK293 cells (human, UniProt O00478 30-584); assay: flow cytometry, HEK293 cells (endogenous BTN3A knocked out) overexpressing human BTN3A3
T4 construct: whole, on cells; HEK293 cells with endogenous BTN3A knocked out; also called human BTN3A3-overexpressing cells

[8] = target: T1, human BTN3A1 recombinant protein with …; assay: SPR Biacore 8K, antibody captured on Protein A chip, BTN3A1 as analyte, 1:1 Langmuir fit; remark: listed apart in the source

T2 sequence (O00481 30-513): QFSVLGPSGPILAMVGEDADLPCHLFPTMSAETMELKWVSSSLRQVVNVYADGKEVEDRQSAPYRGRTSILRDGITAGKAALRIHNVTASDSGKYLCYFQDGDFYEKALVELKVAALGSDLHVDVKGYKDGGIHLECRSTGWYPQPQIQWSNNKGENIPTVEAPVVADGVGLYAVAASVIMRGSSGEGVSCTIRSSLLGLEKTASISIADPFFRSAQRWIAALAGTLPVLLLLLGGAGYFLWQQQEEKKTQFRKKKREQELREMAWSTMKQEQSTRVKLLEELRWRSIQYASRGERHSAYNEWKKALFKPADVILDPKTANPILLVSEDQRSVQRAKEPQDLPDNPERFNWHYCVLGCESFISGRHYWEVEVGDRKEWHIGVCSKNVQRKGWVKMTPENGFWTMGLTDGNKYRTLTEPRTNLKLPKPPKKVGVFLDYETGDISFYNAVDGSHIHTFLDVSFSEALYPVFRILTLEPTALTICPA
T1 sequence (O00481 30-254 limits assumed): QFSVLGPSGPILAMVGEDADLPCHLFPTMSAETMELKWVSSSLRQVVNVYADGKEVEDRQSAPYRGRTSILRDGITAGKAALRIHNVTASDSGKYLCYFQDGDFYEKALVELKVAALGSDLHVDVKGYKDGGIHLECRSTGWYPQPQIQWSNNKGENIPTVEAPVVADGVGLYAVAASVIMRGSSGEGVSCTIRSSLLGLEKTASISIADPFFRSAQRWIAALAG
T4 sequence (O00478 30-584): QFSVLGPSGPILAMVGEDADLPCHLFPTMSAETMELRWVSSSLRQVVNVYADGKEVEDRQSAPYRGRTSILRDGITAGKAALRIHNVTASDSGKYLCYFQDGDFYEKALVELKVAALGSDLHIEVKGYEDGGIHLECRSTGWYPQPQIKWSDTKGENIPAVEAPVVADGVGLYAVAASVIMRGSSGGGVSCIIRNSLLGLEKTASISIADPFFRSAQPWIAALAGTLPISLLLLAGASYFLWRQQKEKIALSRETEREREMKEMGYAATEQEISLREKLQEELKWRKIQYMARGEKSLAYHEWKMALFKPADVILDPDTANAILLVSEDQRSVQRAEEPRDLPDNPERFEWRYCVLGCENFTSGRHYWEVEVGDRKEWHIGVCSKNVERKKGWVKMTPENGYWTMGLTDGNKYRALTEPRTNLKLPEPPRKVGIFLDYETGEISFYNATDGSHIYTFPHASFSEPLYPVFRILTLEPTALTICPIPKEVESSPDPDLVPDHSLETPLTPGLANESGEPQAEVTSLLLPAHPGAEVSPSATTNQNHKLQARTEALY
T3 sequence (P78410 30-334): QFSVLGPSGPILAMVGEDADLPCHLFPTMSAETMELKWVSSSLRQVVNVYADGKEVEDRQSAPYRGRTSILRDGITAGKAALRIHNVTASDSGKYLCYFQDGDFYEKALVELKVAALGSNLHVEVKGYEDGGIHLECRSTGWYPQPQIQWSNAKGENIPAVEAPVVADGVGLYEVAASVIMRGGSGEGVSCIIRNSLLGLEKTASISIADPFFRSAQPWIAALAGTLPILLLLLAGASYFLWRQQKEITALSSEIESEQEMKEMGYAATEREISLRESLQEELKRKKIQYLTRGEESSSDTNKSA

B1: 17G4 (a human-rabbit chimeric antibody, parent) (antibody, human IgG1, kappa, V domains shown)
VH: QSLEESGGRLVTPGTPLTLTCTASGFSLNDYYITWVRQAPGKGLEWIGVIYGSSNTVYASWAKGRFTISKTSTMVDLRITSPTTEDTATYFCARGYLASSADIWGPGTLVTVSL
VL: QVLTQTPSPVSAAVGGTVTINCQSSQSVYNNNRLAWYQQKPGQPPKLLIYDASTLASGVPSRFKGSGSGTDFTLTISDLECADAATYYCQTYYSGYIWAFGGGTEVVVKR
notes: Rabbit variable regions on the human IgG1 constant region with L234F/L235E/P331S (Eu numbering) and human Ckappa
EC50 [1]: 0.0228 nM
EC50 [2]: 17.4 nM
Max FACS mean fluorescence intensity (MFI) [2]: 98000 MFI
EC50 [3]: 15.4 nM
Kd [4]: 0.228 nM
koff [4]: 0.000182 s⁻¹
kon [4]: 800000 M⁻¹ s⁻¹

B3: 17G4-H5L3 (antibody, human IgG1, kappa, V domains shown)
VH: EQQLVESGGGLVQPGGSLRLSCAASGFSLNDYYITWVRQAPGKGLEWIGVIYGSSNTVYASWAKGRFTISKTSTMVYLQMNSLRAEDTAVYFCARGYLASSADIWGQGTLVTVSS
VL: DQQLTQSPSSLSASVGDRVTITCQSSQSVYNNNRLAWYQQKPGKPPKLLIYDASTLASGVPSRFSGSGSGTDFTLTISSLQPEDVATYYCQTYYSGYIWAFGGGTKVEIKR
notes: Humanized; human IgG1 constant region with L234F/L235E/P331S and human Ckappa; also called 17G4's humanized antibody
EC50 [2]: 19.8 nM
Max FACS mean fluorescence intensity (MFI) [2]: 89700 MFI

The next binders have a lower EC50 [2] than those just listed; values first:

EC50 [1]: 0.0196 nM
EC50 [2]: 11.7 nM
Max FACS mean fluorescence intensity (MFI) [2]: 95800 MFI
EC50 [3]: 8.2 nM
Kd [4]: 0.174 nM
koff [4]: 0.000172 s⁻¹
kon [4]: 985000 M⁻¹ s⁻¹
B2: 20A3 (a human-rabbit chimeric antibody, parent) (antibody, human IgG1, kappa, V domains shown)
VH: QSVEESGGRLVTPGTPLTLTCTASGFTINNYYMNWVRQAPGKGLEWIGIIYGSDNTYYASWAKGRFTISKTSTTVDLIMTSPTTEDTATYFCVRNLDYSSAYFHIWGPGTLVTVSS
VL: QVLTQTPSPVSAAVGGTVSISCQASQSVYNNNRLAWYQQKPGQPPNLLIYEASKLASGVPSRFKGSGSGTQFTLIISEVQCEDAATYYCQGYYSGFIYPFGGGTEVVVKR
notes: as for B1

EC50 [2]: 10.2 nM
Max FACS mean fluorescence intensity (MFI) [2]: 91200 MFI
EC50 [5]: 2.98 nM
EC50 [6]: 6.76 nM
EC50 [7]: 5.12 nM
Kd [8]: 0.174 nM
koff [8]: 0.000172 s⁻¹
kon [8]: 985000 M⁻¹ s⁻¹
B4: 20A3-H2L2 (antibody, human IgG1, kappa, V domains shown)
VH: EVQLVESGGGLVQPGGSLRLSCAASGFTINNYYMNWVRQAPGKGLEWVSIIYGSDNTYYASWAKGRFTISKDNSKNTVYLQMNSLRAEDTAVYYCVRNLDYSSAYFHIWGQGTLVTVSS
VL: B3 VL with Q2I, S25A, D52E, T55K, T92G, Y97F, W99Y, A100P
notes: Humanized; human IgG1 constant region with L234F/L235E/P331S and human Ckappa; also called 20A3's humanized antibody
